Assay results from article PMC11481526.

Target: Toxoplasma gondii ABCB7-like (TgABCB7L), TGGT1_269000 (Toxoplasma gondii)
Test: native gel or EMSA; BN-PAGE (4-16% Bis-Tris) of ABCB7L-HA parasites solubilised in 1% βDDM on ice, immunoblot with anti-HA; bovine mitochondrial membranes as size marker

Toxoplasma gondii ABCB7-like (TgABCB7L), TGGT1_269000 (natural protein)
stoichiometry N: 2
